Biological target: T1, CD177 (UniProt Q8N6Q3 22-408, limits assumed)
T1 construct: Immobilized on a GLH sensor chip by amine chemistry for SPR; also called neutrophil receptor CD177
T1 sequence (looked up): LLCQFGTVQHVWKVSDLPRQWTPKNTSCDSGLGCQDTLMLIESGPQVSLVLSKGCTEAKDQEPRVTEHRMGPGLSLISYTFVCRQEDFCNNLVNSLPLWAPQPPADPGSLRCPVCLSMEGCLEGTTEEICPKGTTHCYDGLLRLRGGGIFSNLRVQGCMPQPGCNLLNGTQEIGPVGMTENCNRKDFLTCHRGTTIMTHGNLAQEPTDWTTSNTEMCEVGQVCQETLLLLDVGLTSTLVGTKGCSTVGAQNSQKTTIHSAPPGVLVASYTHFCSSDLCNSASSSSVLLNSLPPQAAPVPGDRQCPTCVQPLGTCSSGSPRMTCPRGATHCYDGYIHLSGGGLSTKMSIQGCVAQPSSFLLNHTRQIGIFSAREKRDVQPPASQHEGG
Assay: SPR (ProteOn XPR36), CD177 immobilized on GLH chip by amine chemistry, PR3 variant in a concentration series
Procedure: FIG. 2: Comparison of wtPR3 and monomeric PR3 properties by SPR and ELISA. […] The antibodies each recognize distinct, non-overlapping epitopes on PR3. wtPR3 (left bar) and the monomeric Trp222Ala PR3 variant (right bar) are equally well recognized by the antibodies.
Experiments were performed on a ProteOn XPR36 instrument (BioRad) with proteins immobilized to GLH sensor chips (BioRad) using standard amine chemistry. The binding interaction of a concentration series of soluble monomeric Trp222Ala PR3 variant with immobilized CD177 was assessed (FIG. 2A).

B1: monomeric Trp222Ala PR3 variant (enzyme)
chain: IVGGHEAQPHSRPYMASLQMRGNPGSHFCGGTLIHPSFVLTAAHCLRDIPQRLVNVVLGAHNVRTQEPTQQHFSVAQVFLNNYDAENKLNDVLLIQLSSPANLSASVATVQLPQQDQPVPHGTQCLAMGWGRVGAHDPPAQVLQELNVTVVTFFCRPHNICTFVPRRKAGICFGDSGGPLICDGIIQGIDSFVIAGCATRLFPDFFTRVALYVDWIRSTLRRVEAKGRP
notes: Made as a C-terminal fusion with human Ig1 Fc and secreted through an N-terminal Ig1 signal peptide; The propeptides aa 26-27 and aa 249-256 may also be absent, and residues left by the TEV site may remain at the C-terminus; also called monomeric PR3
Binder B1 has a Kd of 57 nM.

Source: patent US20220088279A1 (GAMBRO LUNDIA, published 2022)
